# Measurements published in patent publication US20240067748A1 (NONA BIOSCIENCES SUZHOU, published 2024).
# Where a chain is given by its changes, count along the chain named.
# T1: monkey Trop2 protein (Sino Biological, #90893-C08H) (monkey, UniProt A0A2K5UE71 27-274)
# T1 construct: bought protein; also called monkey Trop2 protein antigen (His tag)
# T1 sequence: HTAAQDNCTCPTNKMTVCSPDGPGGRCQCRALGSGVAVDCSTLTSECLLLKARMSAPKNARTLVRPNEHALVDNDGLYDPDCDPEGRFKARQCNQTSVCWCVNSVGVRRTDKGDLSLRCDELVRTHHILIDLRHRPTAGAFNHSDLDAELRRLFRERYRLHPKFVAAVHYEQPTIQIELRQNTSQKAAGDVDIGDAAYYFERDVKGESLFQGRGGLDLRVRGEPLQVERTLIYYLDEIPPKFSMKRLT
# T2: human Trop2 on cells (human, UniProt P09758 27-323)
# T2 construct: whole, on cells; also called hTrop2; 293T-human Trop2 cells
# T2 sequence (looked up): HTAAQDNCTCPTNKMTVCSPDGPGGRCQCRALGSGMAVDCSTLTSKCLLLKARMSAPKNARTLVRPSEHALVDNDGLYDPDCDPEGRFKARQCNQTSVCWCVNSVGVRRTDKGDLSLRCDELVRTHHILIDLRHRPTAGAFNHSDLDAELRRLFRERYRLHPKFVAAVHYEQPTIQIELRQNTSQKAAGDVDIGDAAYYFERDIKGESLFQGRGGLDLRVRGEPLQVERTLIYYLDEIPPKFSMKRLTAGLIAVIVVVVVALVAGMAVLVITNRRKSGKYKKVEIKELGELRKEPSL
# T3: human TROP2 protein (Sino Biological, #10428-H08H) (human, UniProt P09758 27-274)
# T3 construct: bought protein; also called human Trop2 protein antigen (His tag); not shown: His tag
# T3 sequence (looked up): T1 sequence with V36M, E46K, N67S, V204I
# B1: PR001134 (antibody, human IgG1, kappa, V domains shown)
# VH: QVQLVESGGGVVQPGRSLRVSCIASGFFFSSYGMHWVRQAPGKGLEWVAVIWYDGSNEDYVDSVKGRFTISRDNSKNTLYLQMNSLRGEDTAMYYCARGGYNSGWWAFDIWGQGTMVTVSS
# VL: DIQMTQSPSSLSASVGDRVTITCRASQGISHFLAWYQQKPGKVPKLLIYAASTLQSGVPSRFSGSGSGTDFTLTISSLQPEDVATYYCQKFNSAPLTFGGGTKVEIKR
# notes: fully human IgG1/kappa; also called antibody No. (6)
# B2: PR001143 (antibody, human IgG1, kappa, V domains shown)
# VH: B1 VH with I23A, F28I, S31T, M93V, I110V, M116L
# VL: B1 VL
# notes: fully human IgG1/kappa; also called antibody No. (10)
# B3: PR001145 (antibody, human IgG1, kappa, V domains shown)
# VH: QVQLVESGGGVVQPGRSLRLSCAASGFTFSSFGMQWVRQGPGKGLEWVAIMWFDGSNKYYVDSVKGRFTISRDNSKNTLYLQMNSLRAEDTAVYYCARLDFSGWPLIDYWGQGTLVTVSS
# VL: not shown
# notes: fully human IgG1/kappa; also called antibody No. (11)
# B4: PR001168 (antibody, human IgG1, kappa, V domains shown)
# VH: QVQLVESGGGVVQPGRSLRLSCATSGFIFSSYGMHWVRQAPGKGLDWVAVIWYDGSNKYYADSVKGRFTISRDNSKNTLYLQMNSLRVEDTAVYYCARETSSWYVGYLQHWGQGTLVTVSS
# VL: EIVMTQSPATLSVSPGERVSLSCRASQSVNGNVAWYQQKPGQAPRLLIYAASTRATGIPARFSGSGSGTESTLTISSLQSEDCAVYYCQQYNNWPSTFGPGTKLEVTR
# notes: fully human IgG1/kappa; also called antibody No. (28)
# B5: PR001153 (antibody, human IgG1, kappa, V domains shown)
# VH: QVQLQESGPGLVKPSGTLSLTCAVSGGSISSSNWWSWVRQPPGKGLEWIGEIYHDGSTDYNPSLKSRVIISVDKSKNQFSLKVRSVTAADTAVYYCARDNWGFDYWGQGTLVTVSS
# VL: EIVLTQFPGTLSLSPGERATLSCRSSQSVSSSYLAWYQQKPGQAPRLLISGASSRATGIPDRFSGSGSGTDFTLTISRLEPEDFAVYYCQQYGSSPRTFGQGTKVEIKR
# notes: fully human IgG1/kappa; also called antibody No. (16)
# B6: PR001147 (antibody, human IgG1, kappa, V domains shown)
# VH: QVNLVESGGGVVQPGRSLKLSCAASGFTFSSYGMHWVRQAPGKGLEWVAFIWSDGTNRYYPESVKGRFTISRDDSRNTVSLQMNSLRPEDTAVYYCARDGWGTYGEYFQHWGQGTLVTVSS
# VL: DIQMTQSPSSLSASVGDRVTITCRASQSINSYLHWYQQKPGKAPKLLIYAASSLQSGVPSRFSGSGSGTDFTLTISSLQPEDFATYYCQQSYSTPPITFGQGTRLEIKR
# notes: fully human IgG1/kappa; also called antibody No. (12)
# B7: PR001155 (antibody, human IgG1, kappa, V domains shown)
# VH: QVQLVQSGGGVVQPGRSLRLSCAASGFTFSHYGMHWVRQAPGKGLEWVAVIWYDGIKKYYVESVKGRFTISRDNSKNTLYLQMNRLRAEDTAVYYCARDGGFGELNYYGLDVWGQGTTVTVSS
# VL: DIQLTQSPSFLSASVGDRVTITCRASQGISSYLGWYQQKPGKAPKLLIYVASTLQSGVPSRFSGSGSGTEFTLTISSLQPEDFATYYCQQLNSYPYTFGQGTKLEIKR
# notes: fully human IgG1/kappa; also called antibody No. (18)
# B8: PR001164 (antibody, human IgG1, kappa, V domains shown)
# VH: QVQLQQSGPGLVKPSQTLSLTCAISGDSVSSTSAVWNWIRQSPSRGLEWLGRTCYRSKWYNDYAVSVKSRITITPDTSKNQFSLRLNPVTPEDTAVYYCARGDFRFDSWGQGTLVTVSS
# VL: B7 VL with G34A, V50A, L91V, N92K, S93I, Y96L, Q100G, L104V
# notes: fully human IgG1/kappa; also called antibody No. (25)
# B9: PR001156 (antibody, human IgG1, kappa, V domains shown)
# VH: B7 VH with Q6E, A23E, A24G, Y59N, E62D, V64L, R85S, L110M
# VL: B7 VL with V50I
# notes: fully human IgG1/kappa; also called antibody No. (19)
# B10: PR001158 (antibody, human IgG1, kappa, V domains shown)
# VH: B7 VH with Q6E, A23V, Y80N, L105S
# VL: B7 VL with V50I
# notes: fully human IgG1/kappa; also called antibody No. (20)
# B11: PR001163 (antibody, human IgG1, kappa, V domains shown)
# VH: B7 VH with Q6E, G10D, A23E, I51V
# VL: B7 VL
# notes: fully human IgG1/kappa; also called antibody No. (24)
# B12: PR001160 (antibody, human IgG1, kappa, V domains shown)
# VH: B7 VH with Q6E, A23E, K57M, Y59N, V61I
# VL: B7 VL
# notes: fully human IgG1/kappa; also called antibody No. (22)
# Target: T1, monkey Trop2 protein (Sino Biological, …)
# Assay: BLI, Octet RED96; ratio against KD for human Trop2 protein
# Procedure: (§1) Specifically, a human TROP2 protein (Sino Biological, #10428-H08H) or a monkey Trop2 protein (Sino Biological, #90893-C08H) was diluted to 200 nM with a PBS buffer (pH 7.4) containing 0.1% (w/w) BSA and 0.02% (v/v) tween 20, and incubated with the AHC sensor respectively. 40 nM Trop2 antibody was incubated at 30° C. for 3 min with the AHC sensor loaded with the human Trop2 protein or monkey Trop2 protein respectively. The reaction mixture was incubated at 30° C. for another 5 min in a PBS buffer (pH 7.4) containing 0.1% (v/w) BSA and 0.02% (v/v) Tween 20. The association and dissociation signals between the Trop2 antibody and the human Trop2 protein or monkey Trop2 protein were recorded by Octet Red 96 in real time. The affinity and the association and dissociation constants were determined by Octet using software.
row,KD (monkey)/KD (human),Binder
1,1.72,B1
2,1.78,B2
3,1.3,B3
4,1.54,B4
5,5.61,B5
6,3.86,B6
7,2.32,B7
8,0.85,B8
9,5.85,B9
10,4.56,B10
11,2.48,B11
12,2.22,B12

# Target: T2, human Trop2 on cells
# Assay: flow cytometry on 293T-human Trop2 cells
# Procedure: The cell density was determined, and the cells were resuspended to 1×10⁶ cells/mL in PBS. 100 μL of cell suspension was taken from each well and added to a 96 well V-bottom plate. The 96-well V-bottom plate was centrifuged at 1000 rpm for 5 min and washed once with PBS+0.5% BSA (VWR, #0332-100G). […] After 1 h, the cells were washed twice with PBS+0.5% BSA. The cells were incubated with 100 μL of Alexa Fluor 488 goat anti-human IgG (Life technologies, 1:1000, #A-11013) at 4° C. for 1 h in the dark, and washed twice with PBS+0.5% BSA. The cells were resuspended in 200 μL of PBS+0.5% BSA. The fluorescence intensity of the cells was analyzed using a FACS verse flow cytometer. All procedures were performed on ice.
EC50,Maximum (MFI),Top %,Binder
0.653 nM,6040 MFI,93.2%,B1
0.795 nM,6300 MFI,97.2%,B2
0.48 nM,7030 MFI,108%,B3
0.669 nM,6780 MFI,105%,B4
2.47 nM,6940 MFI,107%,B5
1.31 nM,7420 MFI,115%,B6
2.54 nM,7320 MFI,113%,B7
2.4 nM,8950 MFI,138%,B8
1.67 nM,7270 MFI,112%,B9
1.26 nM,6950 MFI,107%,B10
0.496 nM,5990 MFI,92.4%,B11
1.22 nM,6710 MFI,104%,B12

# Target: T3, human TROP2 protein (Sino Biological, …)
# Assay: BLI, Octet RED96, AHC sensor
# Procedure: as §1
Kd,Response,koff,kon,fold lower KD than the reference antibody Tab (hRS7),Binder
5.42 nM,0.354,0.000451 s⁻¹,83100 M⁻¹ s⁻¹,,B1
6.94 nM,0.335,0.000556 s⁻¹,80100 M⁻¹ s⁻¹,,B2
14.7 nM,0.29,0.00135 s⁻¹,91900 M⁻¹ s⁻¹,,B3
1.59 nM,0.333,0.00014 s⁻¹,88000 M⁻¹ s⁻¹,,B4
0.0323 nM,0.381,2.53e-06 s⁻¹,78600 M⁻¹ s⁻¹,~10 fold,B5
0.498 nM,0.349,4.23e-05 s⁻¹,85000 M⁻¹ s⁻¹,,B6
1.84 nM,0.406,0.000144 s⁻¹,78100 M⁻¹ s⁻¹,,B7
2.41 nM,0.194,0.000262 s⁻¹,109000 M⁻¹ s⁻¹,,B8
0.0916 nM,0.354,1.67e-05 s⁻¹,183000 M⁻¹ s⁻¹,,B9
0.155 nM,0.433,2.05e-05 s⁻¹,132000 M⁻¹ s⁻¹,,B10
0.79 nM,0.396,8.34e-05 s⁻¹,106000 M⁻¹ s⁻¹,,B11
0.819 nM,0.39,9.48e-05 s⁻¹,116000 M⁻¹ s⁻¹,,B12

# Target: T1, monkey Trop2 protein (Sino Biological, …)
# Assay: BLI, Octet RED96, AHC sensor
# Procedure: as §1
Kd,Response,koff,kon,Binder
9.33 nM,0.335,0.000512 s⁻¹,54900 M⁻¹ s⁻¹,B1
12.4 nM,0.308,0.000645 s⁻¹,52100 M⁻¹ s⁻¹,B2
19.1 nM,0.277,0.00134 s⁻¹,70100 M⁻¹ s⁻¹,B3
2.45 nM,0.311,0.000145 s⁻¹,59300 M⁻¹ s⁻¹,B4
0.181 nM,0.337,1.07e-05 s⁻¹,59300 M⁻¹ s⁻¹,B5
1.92 nM,0.341,0.000117 s⁻¹,60900 M⁻¹ s⁻¹,B6
4.26 nM,0.356,0.000219 s⁻¹,51500 M⁻¹ s⁻¹,B7
2.04 nM,0.173,0.000162 s⁻¹,79400 M⁻¹ s⁻¹,B8
0.536 nM,0.349,6.15e-05 s⁻¹,115000 M⁻¹ s⁻¹,B9
0.708 nM,0.406,6.23e-05 s⁻¹,87900 M⁻¹ s⁻¹,B10
1.96 nM,0.372,0.000134 s⁻¹,68400 M⁻¹ s⁻¹,B11
1.82 nM,0.36,0.000135 s⁻¹,74300 M⁻¹ s⁻¹,B12
